Data on three molecules can be found in PMC2562756.

The target in data set [1] is T1, DNA topoisomerase 1 (TOP1) (human, UniProt P11387 1-765). Nature of the data set: competition.
The target of data set [2] is T1, DNA topoisomerase 1 (TOP1). In words: EMSA.
Data set [3] concerns the target T1, DNA topoisomerase 1 (TOP1). Nature of the data set: competition. The source holds these as a separate data set.

T1 sequence (P11387 whole entry): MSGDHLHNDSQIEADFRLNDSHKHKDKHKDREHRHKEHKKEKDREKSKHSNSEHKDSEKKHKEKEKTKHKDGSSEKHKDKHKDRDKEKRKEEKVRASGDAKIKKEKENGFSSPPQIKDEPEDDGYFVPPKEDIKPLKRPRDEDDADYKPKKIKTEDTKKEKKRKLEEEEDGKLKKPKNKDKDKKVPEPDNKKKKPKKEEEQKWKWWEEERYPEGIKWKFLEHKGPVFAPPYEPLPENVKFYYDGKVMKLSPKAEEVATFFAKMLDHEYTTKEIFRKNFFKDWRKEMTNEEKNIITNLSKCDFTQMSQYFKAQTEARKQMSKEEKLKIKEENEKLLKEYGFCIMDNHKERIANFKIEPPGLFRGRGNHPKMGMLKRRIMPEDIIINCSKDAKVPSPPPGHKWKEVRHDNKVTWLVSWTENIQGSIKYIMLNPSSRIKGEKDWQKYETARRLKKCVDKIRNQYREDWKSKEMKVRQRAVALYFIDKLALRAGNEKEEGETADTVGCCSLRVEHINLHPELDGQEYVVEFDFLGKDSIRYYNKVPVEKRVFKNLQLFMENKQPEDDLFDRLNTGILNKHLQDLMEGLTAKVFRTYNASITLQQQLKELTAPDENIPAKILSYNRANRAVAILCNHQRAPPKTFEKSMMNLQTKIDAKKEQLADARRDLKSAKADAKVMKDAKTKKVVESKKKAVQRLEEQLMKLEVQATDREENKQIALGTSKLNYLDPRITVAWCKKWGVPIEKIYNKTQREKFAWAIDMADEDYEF

B1: 22-bp TOP1 binding sequence competitor (TOP1-BS) (dsDNA)
DNA 1: AAAAAGACTTGGAAAAATTTTT
DNA 2: AAAAATTTTTCCAAGTCTTTTT
B1: the binding result in data set [1] was “binds”.

B2: 52-bp TOP1 substrate (dsDNA)
DNA 1: TCTAGAGGATTTCGAAGACTTAGAGAAATTTCGAAGATCCCCGGGCGAGCTC
DNA 2: GAGCTCGCCCGGGGATCTTCGAAATTTCTCTAAGTCTTCGAAATCCTCTAGA
For the molecule B2, the binding result in data set [2] was “binds”.

B3: 42-bp NF-kappaB binding sequence competitor (NF-kappaB-BS) (dsDNA)
DNA 1: GATCCAAGGGGACTTTCCATGGATCCAAGGGGACTTTCCATG
DNA 2: CATGGAAAGTCCCCTTGGATCCATGGAAAGTCCCCTTGGATC
B3: the binding result in data set [3] is reported as “no binding”.
